Measurements: patent publication US20140178854A1

Columns and labels:
[1] = biological target: gp70 env protein of amphotropic MLV (4070A envelope), on purified viral particles (amphotropic murine leukemia virus (4070A envelope)); experiment: ELISA on plate-bound MLV, dilution factor 1250, inter-assay mean of six experiments
[2] = biological target: gp70 env protein of amphotropic MLV (4070A envelope), on purified viral particles (amphotropic murine leukemia virus (4070A envelope)); experiment: ELISA on plate-bound MLV, dilution factor 10, Exp074-DTV Plate 2
[3] = biological target: gp70 env protein of amphotropic MLV (4070A envelope), on purified viral particles (amphotropic murine leukemia virus (4070A envelope)); experiment: ELISA on plate-bound MLV, dilution factor 781250, Exp074-DTV Plate 1
[4] = biological target: gp70 env protein of amphotropic MLV (4070A envelope), on purified viral particles (amphotropic murine leukemia virus (4070A envelope)); experiment: ELISA on plate-bound MLV, dilution factor 10, Exp073-DTV Plate 1
[5] = biological target: gp70 env protein of amphotropic MLV (4070A envelope), on purified viral particles (amphotropic murine leukemia virus (4070A envelope)); experiment: ELISA on plate-bound MLV, dilution factor 6250, Exp072-DTV Plate 1
[6] = biological target: gp70 env protein of amphotropic MLV (4070A envelope), on purified viral particles (amphotropic murine leukemia virus (4070A envelope)); experiment: ELISA on plate-bound MLV, dilution factor 156250, Exp072-DTV Plate 2
[7] = biological target: gp70 env protein of amphotropic MLV (4070A envelope), on purified viral particles (amphotropic murine leukemia virus (4070A envelope)); experiment: ELISA on plate-bound MLV, dilution factor 156250, Exp074-DTV Plate 1
[8] = biological target: gp70 env protein of amphotropic MLV (4070A envelope), on purified viral particles (amphotropic murine leukemia virus (4070A envelope)); experiment: ELISA on plate-bound MLV, dilution factor 1250, Exp072-DTV Plate 1
[9] = biological target: gp70 env protein of amphotropic MLV (4070A envelope), on purified viral particles (amphotropic murine leukemia virus (4070A envelope)); experiment: ELISA on plate-bound MLV, dilution factor 10, Exp073-DTV Plate 2
[10] = biological target: gp70 env protein of amphotropic MLV (4070A envelope), on purified viral particles (amphotropic murine leukemia virus (4070A envelope)); experiment: ELISA on plate-bound MLV, dilution factor 156250, Exp121-Ana Plate 1
[11] = biological target: gp70 env protein of amphotropic MLV (4070A envelope), on purified viral particles (amphotropic murine leukemia virus (4070A envelope)); experiment: ELISA on plate-bound MLV, dilution factor 31250, Exp122-Ana Plate 2
[12] = biological target: gp70 env protein of amphotropic MLV (4070A envelope), on purified viral particles (amphotropic murine leukemia virus (4070A envelope)); experiment: ELISA on plate-bound MLV, dilution factor 6250, Exp074-DTV Plate 2
[13] = biological target: gp70 env protein of amphotropic MLV (4070A envelope), on purified viral particles (amphotropic murine leukemia virus (4070A envelope)); experiment: ELISA on plate-bound MLV, dilution factor 50, inter-assay mean of six experiments
[14] = biological target: gp70 env protein of amphotropic MLV (4070A envelope), on purified viral particles (amphotropic murine leukemia virus (4070A envelope)); experiment: ELISA on plate-bound MLV, dilution factor 250, inter-assay mean of six experiments
[15] = biological target: gp70 env protein of amphotropic MLV (4070A envelope), on purified viral particles (amphotropic murine leukemia virus (4070A envelope)); experiment: ELISA on plate-bound MLV, dilution factor 156250, Exp125-Ana Plate 1
[16] = biological target: gp70 env protein of amphotropic MLV (4070A envelope), on purified viral particles (amphotropic murine leukemia virus (4070A envelope)); experiment: ELISA on plate-bound MLV, dilution factor 10, Exp122-Ana Plate 2
[17] = biological target: gp70 env protein of amphotropic MLV (4070A envelope), on purified viral particles (amphotropic murine leukemia virus (4070A envelope)); experiment: ELISA on plate-bound MLV, dilution factor 250, Exp122-Ana Plate 2
[18] = biological target: gp70 env protein of amphotropic MLV (4070A envelope), on purified viral particles (amphotropic murine leukemia virus (4070A envelope)); experiment: ELISA on plate-bound MLV, dilution factor 1250, Exp122-Ana Plate 2
[19] = biological target: gp70 env protein of amphotropic MLV (4070A envelope), on purified viral particles (amphotropic murine leukemia virus (4070A envelope)); experiment: ELISA on plate-bound MLV, dilution factor 1250, Exp121-Ana Plate 1
[20] = biological target: gp70 env protein of amphotropic MLV (4070A envelope), on purified viral particles (amphotropic murine leukemia virus (4070A envelope)); experiment: ELISA on plate-bound MLV, dilution factor 781250, inter-assay mean of six experiments
[21] = biological target: gp70 env protein of amphotropic MLV (4070A envelope), on purified viral particles (amphotropic murine leukemia virus (4070A envelope)); experiment: ELISA on plate-bound MLV, dilution factor 250, Exp072-DTV Plate 2
[22] = biological target: gp70 env protein of amphotropic MLV (4070A envelope), on purified viral particles (amphotropic murine leukemia virus (4070A envelope)); experiment: ELISA on plate-bound MLV, dilution factor 250, Exp072-DTV Plate 1
[23] = biological target: gp70 env protein of amphotropic MLV (4070A envelope), on purified viral particles (amphotropic murine leukemia virus (4070A envelope)); experiment: ELISA on plate-bound MLV, dilution factor 31250, Exp125-Ana Plate 2
[24] = biological target: gp70 env protein of amphotropic MLV (4070A envelope), on purified viral particles (amphotropic murine leukemia virus (4070A envelope)); experiment: ELISA on plate-bound MLV, dilution factor 10, Exp121-Ana Plate 2
[25] = biological target: gp70 env protein of amphotropic MLV (4070A envelope), on purified viral particles (amphotropic murine leukemia virus (4070A envelope)); experiment: ELISA on plate-bound MLV, dilution factor 31250, Exp072-DTV Plate 2
[26] = biological target: gp70 env protein of amphotropic MLV (4070A envelope), on purified viral particles (amphotropic murine leukemia virus (4070A envelope)); experiment: ELISA on plate-bound MLV, dilution factor 250, Exp074-DTV Plate 1

Chain of gp70 env protein of amphotropic MLV (4070A envelope), on purified viral particles (amphotropic murine leukemia virus (4070A envelope)) (P21995 whole entry): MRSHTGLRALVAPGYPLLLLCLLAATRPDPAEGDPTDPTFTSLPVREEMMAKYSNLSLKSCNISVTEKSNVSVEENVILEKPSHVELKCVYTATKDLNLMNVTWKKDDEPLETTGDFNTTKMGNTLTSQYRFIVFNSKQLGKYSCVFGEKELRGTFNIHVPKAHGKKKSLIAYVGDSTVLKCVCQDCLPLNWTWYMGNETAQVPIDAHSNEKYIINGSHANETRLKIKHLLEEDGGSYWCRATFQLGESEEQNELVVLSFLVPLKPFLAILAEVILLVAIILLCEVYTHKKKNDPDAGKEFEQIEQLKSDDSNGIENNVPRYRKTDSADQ

83A25 monoclonal antibody (rat IgG2a, anti-gp70)
Mean OD (inter-assay mean) [1]: 1.53 OD | Mean OD [2]: 2.31 OD | Mean OD [3]: 0.114 OD | Mean OD [4]: 2.43 OD | Mean OD [5]: 0.558 OD | Mean OD [6]: 0.119 OD | Mean OD [7]: 0.145 OD | Mean OD [8]: 1.3 OD | Mean OD [9]: 2.48 OD | Mean OD [10]: 0.163 OD | Mean OD [11]: 0.271 OD | Mean OD [12]: 0.699 OD | Mean OD (inter-assay mean) [13]: 2.09 OD | Mean OD (inter-assay mean) [14]: 1.93 OD | Mean OD [15]: 0.136 OD | Mean OD [16]: 2.18 OD | Mean OD [17]: 1.7 OD | Mean OD [18]: 1.4 OD | Mean OD [19]: 1.93 OD | Mean OD (inter-assay mean) [20]: 0.118 OD | Mean OD [21]: 1.56 OD | Mean OD [22]: 1.7 OD | Mean OD [23]: 0.239 OD | Mean OD [24]: 2.65 OD | Mean OD [25]: 0.21 OD | Mean OD [26]: 1.92 OD
